In PMC8913309 (The Journal of Biological Chemistry, 2022):
Substitutions are numbered along the chain they refer to. Numbers in names are those of the source.

B1: Plasmodium falciparum phosphoglycerate mutase 1 (PfPGM1), recombinant His6-tagged WT protein (enzyme)
chain: MTTYTLVLLRHGESTWNKENKFTGWTDVPLSEKGEEEAIAAGKYLKEKNFKFDVVYTSVLKRAICTAWNVLKTADLLHVPVVKTWRLNERHYGSLQGLNKSETAKKYGEEQVKIWRRSYDIPPPKLDKEDNRWPGHNVVYKNVPKDALPFTECLKDTVERVLPFWFDHIAPDILANKKVMVAAHGNSLRGLVKHLDNLSEADVLELNIPTGVPLVYELDENLKPIKHYYLLDSEELKKKMDEVANQGKAK
B2: PfPGM1 P163A, recombinant His6-tagged mutant protein (enzyme, Plasmodium falciparum)
chain: B1 chain with P163A
B3: PfPGM1 K100R, recombinant His6-tagged mutant protein (enzyme, Plasmodium falciparum)
chain: B1 chain with K100R

Biological target: the molecule itself
Experiment: SEC

Compared with B1, B2 is lower in “stoichiometry N” value: 4 for the first, 2 for the second.

For B3, the “stoichiometry N” value was 4.
